Source: patent publication US20190040130A1 (Alector, published 2019)

T1: human TREM2 expressed on cells (human, UniProt Q9NZC2 19-230)
T1 construct: also called huT2 BW; cell expressed TREM2
T1 sequence: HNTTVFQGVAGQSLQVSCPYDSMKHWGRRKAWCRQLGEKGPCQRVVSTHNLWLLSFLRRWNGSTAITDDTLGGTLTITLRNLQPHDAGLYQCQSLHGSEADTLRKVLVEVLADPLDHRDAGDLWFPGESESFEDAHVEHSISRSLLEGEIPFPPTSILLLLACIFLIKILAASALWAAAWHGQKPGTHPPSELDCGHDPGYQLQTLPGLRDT


Target: T1, human TREM2 expressed on cells
Assay: FACS, BW cells
Procedure: To examine cell binding of anti-TREM2 antibodies, recombinant, human TREM2-expressing BW5147. G.1.4 cells (ATCC® TIB48™) were established by stably expressing either mouse TREM2 or human TREM2 together with Dap12 using viral infection. Cells were harvested by scraping, washed in PBS, counted and plated on 96-well U bottom plates at 1×10⁵ cells/well. The plates were spun at 1,400 rpm for 3 minutes and primary anti-TREM2 or control antibodies were added in FACS buffer (PBS+2% FBS) and incubated on ice for one hour. Cells were subsequently centrifuged as before and washed thrice with FACS buffer. Cells were then incubated with anti-human PE conjugated secondary antibody (BD Biosciences) in FACS buffer for 30 minutes on ice. Cells were again washed thrice with FACS buffer and analyzed on a BD FACS Canto. Binding was measured as mean fluorescence intensity in the […].

Cell binding (FOB) | Binder
90 fold over background | AL2p-h25 (antibody, IgG1, V domains shown, IgG1; Fab in monovalent BLI) VH: QVQLVQSGAEVKKPGASLKISCKASGYAFSSSWMNWVRQAPGQGLEWIGRIYPGDGDTNYNGEFRVRATLTADTSTSTAYMELSSLRSEDTAVYYCARLLRNQPGESYAMDYWGQGALVTVSS VL: DVVMTQTPLSLSVTPGQPASISCRSSQSLVHSNGYTYLHWYLQKPGQSPQLLIYKVSNRFSGVPDRFSGSGSGTDFTLKISRVEAEDLGVYFCSQSTRVPYTFGQGTKLEIK
81 fold over background | AL2p-h32 (antibody, IgG1, V domains shown, IgG1; Fab in monovalent BLI) VH: QVQLVQSGAEVKKPGSSVKVSCKASGYAFSSSWMNWVRQAPGQGLEWIGRIYPGDGDTNYNGEFRVRATLTADTSTTTAYMELSSLRSEDTAVYFCARLLRNQPGESYAMDYWGQGTLVTVSS VL: DVVMTQTPLSLSVTPGQPASISCRSSQSLVHSNGYTYLHWYLQKPGQSPQLLIYKVSNRFSGVPDRFSGSGSGTDFTLKISRVEAEDLGVYFCSQSTRVPYTFGQGTKLEIK
83 fold over background | AL2p-h77 (antibody, IgG1, V domains shown, IgG1; Fab in monovalent BLI) VH: QVQLVQSGAEVKKPGASVKVSCKASGYAFSSSWMNWVRQAPGQRLEWIGRIYPGDGDTNYAQKFQGRVTITADTSASTAYMELSSLRSEDTAVYYCARLLRNQPGESYAMDYWGQGTLVTVSS VL: DVVMTQSPDSLAVSLGERATINCRSSQSLVHSNGYTYLHWYQQKPGQSPKLLIYKVSNRFSGVPDRFSGSGSGTDFTLTISSLQAEDVAVYYCSQSTRVPYTFGGGTKVEIK
78 fold over background | AL2p-h27 (antibody, IgG1, V domains shown, IgG1; Fab in monovalent BLI) VH: QVQLVQSGAEVKKPGASVKVSCKASGYAFSSSWMNWVRQAPGQGLEWIGRIYPGDGDTNYNGEFRVRATLTADTSTSTAYMELSSLRSEDTAVYFCARLLRNQPGESYAMDYWGQGTLVTVSS VL: DVVMTQTPLSLSVTPGQPASISCRSSQSLVHSNGYTYLHWYLQKPGQSPQLLIYKVSNRFSGVPDRFSGSGSGTDFTLKISRVEAEDLGVYFCSQSTRVPYTFGQGTKLEIK
78 fold over background | AL2p-h50 (antibody, IgG1, V domains shown, IgG1; Fab in monovalent BLI) VH: QVQLVQSGAEVKKPGSSVKVSCKASGYAFSSSWMNWVRQAPGQGLEWMGRIYPGDGDTNYAQKFQGRVTITADESTSTAYMELSSLRSEDTAVYYCARLLRNQPGESYAMDYWGQGTLVTVSS VL: DVVMTQTPLSLSVTPGQPASISCRSSQSLVHSNGYTYLHWYLQKPGQSPQLLIYKVSNRFSGVPDRFSGSGSGTDFTLKISRVEAEDVGVYYCSQSTRVPYTFGQGTKLEIK
69 fold over background | AL2p-h24 (antibody, IgG1, V domains shown, IgG1; Fab in monovalent BLI) VH: QVQLVQSGAEVVKPGASLKISCKASGYAFSSSWMNWVRQAPGQGLEWIGRIYPGDGDTNYNQKFQGRATLTADTSTSTAYMELSSLRSEDTAVYFCARLLRNQPGESYAMDYWGQGALVTVSS VL: DVVMTQTPLSLSVTPGQPASISCRSSQSLVHSNGYTYLHWYLQKPGQSPQLLIYKVSNRFSGVPDRFSGSGSGTDFTLKISRVEAEDLGVYFCSQSTRVPYTFGQGTKLEIK
84 fold over background | AL2p-h34 (antibody, IgG1, V domains shown, IgG1; Fab in monovalent BLI) VH: QVQLVQSGAEVKKPGSSVKVSCKASGYAFSSSWMNWVRQAPGQGLEWIGRIYPGDGDTNYAQKFQGRATITADTSTSTAYMELSSLRSEDTAVYFCARLLRNQPGESYAMDYWGQGTLVTVSS VL: DVVMTQTPLSLSVTPGQPASISCRSSQSLVHSNGYTYLHWYLQKPGQSPQLLIYKVSNRFSGVPDRFSGSGSGTDFTLKISRVEAEDLGVYFCSQSTRVPYTFGQGTKLEIK
61 fold over background | AL2p-h22 (antibody, IgG1, V domains shown, IgG1; Fab in monovalent BLI) VH: QVQLVQSGAEVKKPGASVKVSCKASGYAFSSSWMNWVRQAPGQGLEWIGRIYPGDGDTNYAQKFQGRVTMTADTSTSTVYMELSSLRSEDTAVYYCARLLRNQPGESYAMDYWGQGTLVTVSS VL: DVVMTQTPLSLSVTPGQPASISCRSSQSLVHSNGYTYLHWYLQKPGQSPQLLIYKVSNRFSGVPDRFSGSGSGTDFTLKISRVEAEDLGVYFCSQSTRVPYTFGQGTKLEIK
88 fold over background | AL2p-h30 (antibody, IgG1, V domains shown, IgG1; Fab in monovalent BLI) VH: QVQLVQSGAEVKKPGASVKVSCKASGYAFSSSWMNWVRQAPGQGLEWMGRIYPGDGDTNYAQKFQGRVTMTADTSTSTAYMELSSLRSEDTAVYYCARLLRNQPGESYAMDYWGQGTLVTVSS VL: DVVMTQTPLSLSVTPGQPASISCRSSQSLVHSNGYTYLHWYLQKPGQSPQLLIYKVSNRFSGVPDRFSGSGSGTDFTLKISRVEAEDLGVYFCSQSTRVPYTFGQGTKLEIK
80 fold over background | AL2p-h44 (antibody, IgG1, V domains shown, IgG1; Fab in monovalent BLI) VH: QVQLVQSGAEVKKPGASLKVSCKASGYAFSSSWMNWVRQAPGQRLEWIGRIYPGDGDTNYAQKFQGRATLTADTSASTAYMELSSLRSEDTAVYFCARLLRNQPGESYAMDYWGQGTLVTVSS VL: DVVMTQTPLSLSVTPGQPASISCRSSQSLVHSNGYTYLHWYLQKPGQSPQLLIYKVSNRFSGVPDRFSGSGSGTDFTLKISRVEAEDVGVYYCSQSTRVPYTFGQGTKLEIK
87 fold over background | AL2p-h19 (antibody, IgG1, V domains shown, IgG1; Fab in monovalent BLI) VH: QVQLVQSGAEVKKPGSSVKVSCKASGYAFSSSWMNWVRQAPGQGLEWMGRIYPGDGDTNYAQKFQGRATITADTSTSTAYMELSSLRSEDTAVYYCARLLRNQPGESYAMDYWGQGTLVTVSS VL: DIVMTQTPLSLSVTPGQPASISCRSSQSLVHSNGYTYLHWYLQKPGQSPQLLIYKVSNRFSGVPDRFSGSGSGTDFTLKISRVEAEDVGVYYCSQSTRVPYTFGQGTKLEIK
79 fold over background | AL2p-h42 (antibody, IgG1, V domains shown, IgG1; Fab in monovalent BLI) VH: QVQLVQSGAEVKKPGASVKVSCKASGYAFSSSWMNWVRQAPGQRLEWMGRIYPGDGDTNYAQKFQGRVTITRDTSASTAYMELSSLRSEDTAVYYCARLLRNQPGESYAMDYWGQGTLVTVSS VL: DVVMTQTPLSLSVTPGQPASISCRSSQSLVHSNGYTYLHWYLQKPGQSPQLLIYKVSNRFSGVPDRFSGSGSGTDFTLKISRVEAEDVGVYYCSQSTRVPYTFGQGTKLEIK
76 fold over background | AL2p-h23 (antibody, IgG1, V domains shown, IgG1; Fab in monovalent BLI) VH: QVQLVQSGAEVKKPGASLKISCKASGYAFSSSWMNWVRQAPGQGLEWIGRIYPGDGDTNYAQKFQGRATLTADTSTSTAYMELSSLRSEDTAVYYCARLLRNQPGESYAMDYWGQGALVTVSS VL: DVVMTQTPLSLSVTPGQPASISCRSSQSLVHSNGYTYLHWYLQKPGQSPQLLIYKVSNRFSGVPDRFSGSGSGTDFTLKISRVEAEDLGVYFCSQSTRVPYTFGQGTKLEIK
93 fold over background | AL2p-h47 (antibody, IgG1, V domains shown, IgG1; Fab in monovalent BLI) VH: QVQLVQSGAEVKKPGASVKVSCKASGYAFSSSWMNWVRQAPGQGLEWMGRIYPGDGDTNYNGEFRVRVTMTRDTSTSTVYMELSSLRSEDTAVYYCARLLRNQPGESYAMDYWGQGTLVTVSS VL: DVVMTQTPLSLSVTPGQPASISCRSSQSLVHSNGYTYLHWYLQKPGQSPQLLIYKVSNRFSGVPDRFSGSGSGTDFTLKISRVEAEDVGVYYCSQSTRVPYTFGQGTKLEIK
76 fold over background | AL2p-h21 (antibody, IgG1, V domains shown, IgG1; Fab in monovalent BLI) VH: QVQLVQSGAEVKKPGASVKVSCKASGYAFSSSWMNWVRQAPGQGLEWMGRIYPGDGDTNYAQKFQGRVTMTRDTSTSTVYMELSSLRSEDTAVYYCARLLRNQPGESYAMDYWGQGTLVTVSS VL: DVVMTQTPLSLSVTPGQPASISCRSSQSLVHSNGYTYLHWYLQKPGQSPQLLIYKVSNRFSGVPDRFSGSGSGTDFTLKISRVEAEDLGVYFCSQSTRVPYTFGQGTKLEIK
69 fold over background | AL2p-h35 (antibody, IgG1, V domains shown, IgG1; Fab in monovalent BLI) VH: QVQLVQSGAEVKKPGSSVKVSCKASGYAFSSSWMNWVRQAPGQGLEWMGRIYPGDGDTNYAQKFQGRATITADTSTSTAYMELSSLRSEDTAVYYCARLLRNQPGESYAMDYWGQGTLVTVSS VL: DVVMTQTPLSLSVTPGQPASISCRSSQSLVHSNGYTYLHWYLQKPGQSPQLLIYKVSNRFSGVPDRFSGSGSGTDFTLKISRVEAEDLGVYFCSQSTRVPYTFGQGTKLEIK
74 fold over background | AL2p-h33 (antibody, IgG1, V domains shown, IgG1; Fab in monovalent BLI) VH: QVQLVQSGAEVKKPGSSVKVSCKASGYAFSSSWMNWVRQAPGQGLEWIGRIYPGDGDTNYAQKFQGRATLTADTSTTTAYMELSSLRSEDTAVYFCARLLRNQPGESYAMDYWGQGTLVTVSS VL: DVVMTQTPLSLSVTPGQPASISCRSSQSLVHSNGYTYLHWYLQKPGQSPQLLIYKVSNRFSGVPDRFSGSGSGTDFTLKISRVEAEDLGVYFCSQSTRVPYTFGQGTKLEIK
78 fold over background | AL2p-h26 (antibody, IgG1, V domains shown, IgG1; Fab in monovalent BLI) VH: QVQLVQSGAEVKKPGASVKVSCKASGYAFSSSWMNWVRQAPGQRLEWIGRIYPGDGDTNYAQKFQGRVTITADTSASTAYMELSSLRSEDTAVYYCARLLRNQPGESYAMDYWGQGTLVTVSS VL: DVVMTQTPLSLSVTPGQPASISCRSSQSLVHSNGYTYLHWYLQKPGQSPQLLIYKVSNRFSGVPDRFSGSGSGTDFTLKISRVEAEDLGVYFCSQSTRVPYTFGQGTKLEIK
69 fold over background | AL2p-h59 (antibody, IgG1, V domains shown, IgG1; Fab in monovalent BLI) VH: QVQLVQSGAEVKKPGASVKVSCKASGYAFSSSWMNWVRQAPGQRLEWMGRIYPGDGDTNYAQKFQGRVTITRDTSASTAYMELSSLRSEDTAVYYCARLLRNQPGESYAMDYWGQGTLVTVSS VL: DIVMTQSPLSLPVTPGEPASISCRSSQSLVHSNGYTYLHWYLQKPGQSPQLLIYKVSNRFSGVPDRFSGSGSGTDFTLKISRVEAEDVGVYYCSQSTRVPYTFGGGTKVEIK
